Read-outs that look alike come from different tables or passages of the source.
Assay: In vivo biodistribution by organ and tissue extraction
Design: species or system male Wistar rats
Conditions: male, Wistar, total radioactivity, rat; for SUV at 48 h / tissue uptake dose at 48 h: 2880 min p.i.; for SUV at 1 h / tissue uptake dose at 1 h: 60 min p.i.; for tissue uptake dose at 5 min / SUV at 5 min: 5 min p.i.; for dose excreted at 24 h: kidney and urine, read-out: renal elimination
Experimental: The present study includes data obtained from a total of 50 animals. Four animals (body weight 227 ± 10 g) for each time point were injected intravenously into a tail vein or subcutaneously with approximately 0.3 MBq ([…]) [^64Cu]Cu-NOTA-HsTX1[R14A] conjugate in 0.5 mL electrolyte solution E-153 (Serumwerk Bernburg, Germany). Animals were euthanised at 5, 60, 240, 1440 and 2880 min post-injection. Blood and the major organs were collected, weighed, and counted in a cross-calibrated γ-counter (Isomed 1000, Isomed GmbH, Dresden) and Wallac WIZARD Automatic Gamma Counter (PerkinElmer, Germany). The radioactivity of the tissue samples was decay-corrected and calibrated by comparing the counts in tissue with the counts in aliquots of the injected radiotracer that had been measured in the γ-counter at the same time. The activity in the selected organs was expressed as percent-injected dose per organ (% ID) and the activity concentration in tissues and organs as standardised uptake value (SUV). Values are quoted as mean ± standard error of mean (SEM) for each group of four animals.

[1] = femur, sc, 0.3 MBq, s.c., mean ± SD, n=4, read-out: Femur SUV
[2] = femur, sc, 0.3 MBq, s.c., mean ± SD, n=4, read-out: Femur activity amount
[3] = heart, iv, 0.3 MBq, i.v., mean ± SD, n=4, read-out: Heart activity amount
[4] = heart, iv, i.v., mean ± SD, n=4, read-out: Heart SUV
[5] = heart, sc, 0.3 MBq, s.c., mean ± SD, n=4, read-out: Heart activity amount
[6] = heart, sc, s.c., mean ± SD, n=4, read-out: Heart SUV
[7] = intestine, iv, 0.3 MBq, i.v., mean ± SD, n=4, read-out: Intestine activity amount
[8] = intestine, sc, 0.3 MBq, s.c., mean ± SD, n=4, read-out: Intestine activity amount
[9] = kidneys, iv, 0.3 MBq, i.v., mean ± SD, n=4, read-out: Kidneys SUV
[10] = kidneys, iv, 0.3 MBq, i.v., mean ± SD, n=4, read-out: Kidneys activity amount
[11] = kidneys, sc, 0.3 MBq, s.c., mean ± SD, n=4, read-out: Kidneys SUV
[12] = kidneys, sc, 0.3 MBq, s.c., mean ± SD, n=4, read-out: Kidneys activity amount
[13] = liver, iv, 0.3 MBq, i.v., mean ± SD, n=4, read-out: Liver SUV
[14] = liver, iv, 0.3 MBq, i.v., mean ± SD, n=4, read-out: Liver activity amount
[15] = liver, sc, 0.3 MBq, s.c., mean ± SD, n=4, read-out: Liver SUV

SMILES: CSCC[C@@H]1NC(=O)[C@@H]2CSSC[C@H](NC(=O)[C@H](CO)NC(=O)[C@H](C)NC(=O)COCCOCCNC(=O)CN3CCN(CC(=O)O)CCN(CC(=O)O)CC3)C(=O)N[C@@H](CCCNC(=N)N)C(=O)N[C@@H]([C@@H](C)O)C(=O)N3CCC[C@H]3C(=O)N[C@@H](CCCCN)C(=O)N[C@@H](CC(=O)O)C(=O)N[C@H]3CSSC[C@H](NC(=O)[C@H](CCCCN)NC(=O)[C@H](CCCNC(=N)N)NC(=O)[C@H](CC(N)=O)NC1=O)C(=O)N[C@@H](CCCCN)C(=O)N[C@H]1CSSC[C@H](NC(=O)[C@@H]4CCCN4C(=O)[C@H](CC(=O)O)NC(=O)[C@H](C)NC3=O)C(=O)N[C@@H](C)C(=O)N[C@@H](CCCCN)C(=O)N[C@@H](CCC(=O)O)C(=O)N[C@@H]([C@@H](C)O)C(=O)NCC(=O)N[C@@H](CSSC[C@@H](C(N)=O)NC(=O)[C@H](CCCNC(=N)N)NC(=O)[C@H](CC(N)=O)NC1=O)C(=O)N1CCC[C@H]1C(=O)N[C@@H](Cc1ccc(O)cc1)C(=O)NCC(=O)N[C@@H](CCCCN)C(=O)N2 [[^64Cu]Cu-NOTA-HsTX1[R14A], metal not drawn]
- SUV at 48 h (femur, iv, 0.3 MBq, i.v., mean ± SD, n=4, read-out: Femur SUV): 0.39 ± 0.02 SUV
- tissue uptake dose at 48 h (femur, iv, 0.3 MBq, i.v., mean ± SD, n=4, read-out: Femur activity amount): 0.23 ± 0.01 %ID
- SUV at 1 h [1]: 1.25 ± 0.07 SUV
- tissue uptake dose at 1 h [2]: 0.82 ± 0.04 %ID
- SUV at 4 h (femur, sc, 0.3 MBq, s.c., 240 min p.i., mean ± SD, n=4, read-out: Femur SUV): 0.92 ± 0.08 SUV
- tissue uptake dose at 4 h (femur, sc, 0.3 MBq, s.c., 240 min p.i., mean ± SD, n=4, read-out: Femur activity amount): 0.64 ± 0.02 %ID
- SUV at 24 h (femur, sc, 0.3 MBq, s.c., 1440 min p.i., mean ± SD, n=4, read-out: Femur SUV): 0.47 ± 0.02 SUV
- tissue uptake dose at 24 h (femur, sc, 0.3 MBq, s.c., 1440 min p.i., mean ± SD, n=4, read-out: Femur activity amount): 0.34 ± 0.01 %ID
- SUV at 48 h [1]: 0.34 ± 0.02 SUV
- tissue uptake dose at 48 h [2]: 0.19 ± 0.02 %ID
- tissue uptake dose at 5 min [3]: 0.33 ± 0.04 %ID
- tissue uptake dose at 1 h (heart, iv, 0.3 MBq, i.v., mean ± SD, n=8, read-out: Heart activity amount): 0.21 ± 0.06 %ID
- tissue uptake dose at 4 h (heart, iv, 0.3 MBq, i.v., 240 min p.i., mean ± SD, n=4, read-out: Heart activity amount): 0.19 ± 0.03 %ID
- tissue uptake dose at 24 h (heart, iv, 0.3 MBq, i.v., 1440 min p.i., mean ± SD, n=8, read-out: Heart activity amount): 0.23 ± 0.02 %ID
- tissue uptake dose at 48 h [3]: 0.27 ± 0.04 %ID
- SUV at 5 min [4]: 1.04 ± 0.14 SUV
- SUV at 1 h (heart, iv, i.v., mean ± SD, n=8, read-out: Heart SUV): 0.53 ± 0.08 SUV
- SUV at 4 h (heart, iv, i.v., 240 min p.i., mean ± SD, n=4, read-out: Heart SUV): 0.4 ± 0.07 SUV
- SUV at 24 h (heart, iv, i.v., 1440 min p.i., mean ± SD, n=8, read-out: Heart SUV): 0.62 ± 0.07 SUV
- SUV at 48 h [4]: 0.64 ± 0.06 SUV
- tissue uptake dose at 1 h [5]: 0.32 ± 0.02 %ID
- tissue uptake dose at 4 h (heart, sc, 0.3 MBq, s.c., 240 min p.i., mean ± SD, n=4, read-out: Heart activity amount): 0.18 ± 0.03 %ID
- tissue uptake dose at 24 h (heart, sc, 0.3 MBq, s.c., 1440 min p.i., mean ± SD, n=4, read-out: Heart activity amount): 0.23 ± 0.01 %ID
- tissue uptake dose at 48 h [5]: 0.22 ± 0.01 %ID
- SUV at 1 h [6]: 0.7 ± 0.03 SUV
- SUV at 4 h (heart, sc, s.c., 240 min p.i., mean ± SD, n=4, read-out: Heart SUV): 0.41 ± 0.06 SUV
- SUV at 24 h (heart, sc, s.c., 1440 min p.i., mean ± SD, n=4, read-out: Heart SUV): 0.53 ± 0.02 SUV
- SUV at 48 h [6]: 0.57 ± 0.04 SUV
- tissue uptake dose at 5 min [7]: 3.59 ± 2.4 %ID
- tissue uptake dose at 1 h (intestine, iv, 0.3 MBq, i.v., mean ± SD, n=8, read-out: Intestine activity amount): 5.3 ± 2.31 %ID
- tissue uptake dose at 4 h (intestine, iv, 0.3 MBq, i.v., 240 min p.i., mean ± SD, n=4, read-out: Intestine activity amount): 4.61 ± 1.84 %ID
- tissue uptake dose at 24 h (intestine, iv, 0.3 MBq, i.v., 1440 min p.i., mean ± SD, n=8, read-out: Intestine activity amount): 16.5 ± 2.32 %ID
- tissue uptake dose at 48 h [7]: 8.27 ± 1.01 %ID
- tissue uptake dose at 1 h [8]: 7.85 ± 3.82 %ID
- tissue uptake dose at 4 h (intestine, sc, 0.3 MBq, s.c., 240 min p.i., mean ± SD, n=4, read-out: Intestine activity amount): 4.65 ± 1.73 %ID
- tissue uptake dose at 24 h (intestine, sc, 0.3 MBq, s.c., 1440 min p.i., mean ± SD, n=4, read-out: Intestine activity amount): 19.3 ± 1.35 %ID
- tissue uptake dose at 48 h [8]: 8.16 ± 1.02 %ID
- dose excreted at 24 h (iv, 0.3 MBq, i.v., one day after injection): 48 ± 3%
- dose excreted at 24 h (sc, 0.3 MBq, s.c., one day after injection): 51 ± 2%
- SUV at 5 min [9]: 35.1 ± 6.82 SUV
- tissue uptake dose at 5 min [10]: 23.9 ± 3.93 %ID
- SUV at 1 h (kidneys, iv, 0.3 MBq, i.v., mean ± SD, n=8, read-out: Kidneys SUV): 78.4 ± 13.6 SUV
- tissue uptake dose at 1 h (kidneys, iv, 0.3 MBq, i.v., mean ± SD, n=8, read-out: Kidneys activity amount): 61.6 ± 4.21 %ID
- SUV at 4 h (kidneys, iv, 0.3 MBq, i.v., 240 min p.i., mean ± SD, n=4, read-out: Kidneys SUV): 68.4 ± 4.28 SUV
- tissue uptake dose at 4 h (kidneys, iv, 0.3 MBq, i.v., 240 min p.i., mean ± SD, n=4, read-out: Kidneys activity amount): 63.1 ± 0.97 %ID
- SUV at 24 h (kidneys, iv, 0.3 MBq, i.v., 1440 min p.i., mean ± SD, n=8, read-out: Kidneys SUV): 18 ± 5.32 SUV
- tissue uptake dose at 24 h (kidneys, iv, 0.3 MBq, i.v., 1440 min p.i., mean ± SD, n=8, read-out: Kidneys activity amount): 14.2 ± 2.04 %ID
- SUV at 48 h [9]: 6.37 ± 0.59 SUV
- tissue uptake dose at 48 h [10]: 6.19 ± 0.49 %ID
- SUV at 1 h [11]: 58.1 ± 5.55 SUV
- tissue uptake dose at 1 h [12]: 53.3 ± 4.9 %ID
- SUV at 4 h (kidneys, sc, 0.3 MBq, s.c., 240 min p.i., mean ± SD, n=4, read-out: Kidneys SUV): 70.2 ± 4.14 SUV
- tissue uptake dose at 4 h (kidneys, sc, 0.3 MBq, s.c., 240 min p.i., mean ± SD, n=4, read-out: Kidneys activity amount): 62.5 ± 2.36 %ID
- SUV at 24 h (kidneys, sc, 0.3 MBq, s.c., 1440 min p.i., mean ± SD, n=4, read-out: Kidneys SUV): 14.4 ± 1.32 SUV
- tissue uptake dose at 24 h (kidneys, sc, 0.3 MBq, s.c., 1440 min p.i., mean ± SD, n=4, read-out: Kidneys activity amount): 13.6 ± 1.1 %ID
- SUV at 48 h [11]: 5.98 ± 1.08 SUV
- tissue uptake dose at 48 h [12]: 4.95 ± 0.49 %ID
- tissue uptake dose at 4 h (liver and intestine, iv, 0.3 MBq, i.v., 4 h, read-out: activity in the liver and intestine): 12 ± 3 %ID
- tissue uptake dose at 24 h (liver and intestine, iv, 0.3 MBq, i.v., one day after injection, read-out: hepatobiliary elimination, maximum): 31 ± 3 %ID
- tissue uptake dose at 4 h (liver and intestine, sc, 0.3 MBq, s.c., 4 h, read-out: activity in the liver and intestine): 11.4 ± 4 %ID
- tissue uptake dose at 24 h (liver and intestine, sc, 0.3 MBq, s.c., one day after injection, read-out: hepatobiliary elimination, maximum): 30 ± 3 %ID
- SUV at 5 min [13]: 1.02 ± 0.53 SUV
- tissue uptake dose at 5 min [14]: 4.6 ± 2.22 %ID
- SUV at 1 h (liver, iv, 0.3 MBq, i.v., mean ± SD, n=8, read-out: Liver SUV): 1.24 ± 0.31 SUV
- tissue uptake dose at 1 h (liver, iv, 0.3 MBq, i.v., mean ± SD, n=8, read-out: Liver activity amount): 5.43 ± 1.44 %ID
- SUV at 4 h (liver, iv, 0.3 MBq, i.v., 240 min p.i., mean ± SD, n=4, read-out: Liver SUV): 1.78 ± 0.45 SUV
- tissue uptake dose at 4 h (liver, iv, 0.3 MBq, i.v., 240 min p.i., mean ± SD, n=4, read-out: Liver activity amount): 7.01 ± 1.47 %ID
- SUV at 24 h (liver, iv, 0.3 MBq, i.v., 1440 min p.i., mean ± SD, n=8, read-out: Liver SUV): 2.93 ± 0.78 SUV
- tissue uptake dose at 24 h (liver, iv, 0.3 MBq, i.v., 1440 min p.i., mean ± SD, n=8, read-out: Liver activity amount): 14.8 ± 2.42 %ID
- SUV at 48 h [13]: 1.45 ± 0.13 SUV
- tissue uptake dose at 48 h [14]: 8.35 ± 0.95 %ID
- SUV at 1 h [15]: 1.13 ± 0.23 SUV
- tissue uptake dose at 1 h (liver, sc, 0.3 MBq, s.c., mean ± SD, n=4, read-out: Liver activity amount): 4.44 ± 0.74 %ID
- SUV at 4 h (liver, sc, 0.3 MBq, s.c., 240 min p.i., mean ± SD, n=4, read-out: Liver SUV): 1.75 ± 0.63 SUV
- tissue uptake dose at 4 h (liver, sc, 0.3 MBq, s.c., 240 min p.i., mean ± SD, n=4, read-out: Liver activity amount): 6.79 ± 2.27 %ID
- SUV at 24 h (liver, sc, 0.3 MBq, s.c., 1440 min p.i., mean ± SD, n=4, read-out: Liver SUV): 2.23 ± 0.32 SUV
- tissue uptake dose at 24 h (liver, sc, 0.3 MBq, s.c., 1440 min p.i., mean ± SD, n=4, read-out: Liver activity amount): 11.1 ± 1.82 %ID
- SUV at 48 h [15]: 1.4 ± 0.08 SUV
